From US7091173 (MYRIAD GENETICS, dated 2006) come the findings set out here.

The test addresses T1, FKBP-associated protein FAP48 (FAP48), amino acids 118-418, bait fused to the Gal4 DNA binding domain (human, UniProt P04386 1-147 (Saccharomyces cerevisiae entry)).
T1 construct: range 1-147; Bait of the yeast two-hybrid screen; The coordinates 118-418 are counted on GenBank U73704
The test can be described thus: yeast two-hybrid; listed as prey of the bait in 'Binding Regions of FAP48 and Its Interacting Partners'; true positive by beta-galactosidase assay. An excerpt:
The new construct was selected directly in the yeast strain PNY200 for its ability to drive tryptophane synthesis (genotype of this strain: MATα trp1-901 leu2-3, 112 ura3-52 his3-200 ade2 gal4Δ gal80). In these yeast cells, the bait was produced as a C-terminal fusion protein with the DNA binding domain of the transcription factor Gal4 (amino acids 1 to 147). Prey libraries were transformed into the yeast strain BK100 (genotype of this strain: MATa trp1-901 leu2-3,112 ura3-52 his3-200 gal4Δ gal80 LYS2::GAL-HIS3 GAL2-ADE2 met2::GAL7-lacZ), and selected for the ability to drive leucine synthesis. In these yeast cells, each cDNA was expressed as a fusion protein with the transcription activation domain of the transcription factor Gal4 (amino acids 768 to 881) and a 9 amino acid hemagglutinin epitope tag. PNY200 cells (MATα mating type), expressing the bait, were then mated with BK100 cells (MATa mating type), expressing prey proteins from a prey library. The resulting diploid yeast cells expressing proteins interacting with the bait protein were selected for the ability to synthesize tryptophan, leucine, histidine, and adenine. […]

B1: Dynactin (DCTN1(1278), p150-Glued), amino acids 1063-1205, prey fused to the Gal4 activation domain (other, UniProt P04386 768-881, looked up, not shown: small tags and cut ends)
chain: ANFNQSGNIADSSLSFTFTNSSNGPNLITTQTNSQALSQPIASSNVHDNFMNNEITASKIDDGNNSKPLSPGWTDQTAYNAFGITTGMFNTTTMDDVYNYLFDDEDTPPNPKKEIAGEEQQRGAIPGQAPGSVPGPGLVKDSPLLLQQISAMRLHISQLQHENSILKGAQMKASLASLPPLHVAKLSHEGPGSELPAGALYRKTSQLLETLNQLSTHTHVVDITRTSPAAKSPSAQLMEQVAQLKSLSDTVEKLKDE
notes: range 768-881;range 1063-1205; Prey clone of the yeast two-hybrid screen; Coordinates are counted on the GenBank entry; also called 150 kD dynein-associated polypeptide; DP-150
As to B1, the binding result was “binds”.
